Where two headings read alike, the source gives them in different places.
Assays:
Experiment in all cases: cell-based or functional assay
[1] = molecular target: CCR2 (the MCP1 receptor) on THP-1 human monocytic cells (human) (UniProt P41597)
[2] = molecular target: CCR2 (the MCP1 receptor) on THP-1 human monocytic cells (human) (UniProt P41597); remark: listed apart in the source
[3] = molecular target: CCR2 (the MCP1 receptor) on THP-1 human monocytic cells (human) (UniProt P41597); remark: listed apart in the source
[4] = molecular target: CCR2 (the MCP1 receptor) on THP-1 human monocytic cells (human) (UniProt P41597); remark: listed apart in the source

Chain of UniProt P41597 (P41597 whole entry): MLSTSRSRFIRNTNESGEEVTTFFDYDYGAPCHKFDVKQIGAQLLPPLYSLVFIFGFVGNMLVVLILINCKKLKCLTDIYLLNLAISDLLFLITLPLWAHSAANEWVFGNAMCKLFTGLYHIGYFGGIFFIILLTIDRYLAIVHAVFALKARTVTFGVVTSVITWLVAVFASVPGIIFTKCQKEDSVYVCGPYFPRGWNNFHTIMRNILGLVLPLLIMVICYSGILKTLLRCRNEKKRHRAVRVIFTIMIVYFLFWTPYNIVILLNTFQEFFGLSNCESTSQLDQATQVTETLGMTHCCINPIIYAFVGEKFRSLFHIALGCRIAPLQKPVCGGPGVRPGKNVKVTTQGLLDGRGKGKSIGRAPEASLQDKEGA

## recombinant human MCP-1 (rhMCP-1) (R & D Systems) (from UniProt P13500 24-99) (ligand)
[1]
  relative % of THP-1 cell migration, agonist assay, 0.03 nM: 28.6%
  relative % of THP-1 cell migration, agonist assay, 0.1 nM: 52.2%
  relative % of THP-1 cell migration, agonist assay, 0.3 nM: 76%
  relative % of THP-1 cell migration, agonist assay, 3 nM: 78.1%
  relative % of THP-1 cell migration, agonist assay, 10 nM: 47.5%
  relative % of THP-1 cell migration, agonist assay, 30 nM: 25.3%
[2]
  relative % of THP-1 cell migration, agonist assay, 0.01 nM: 29.2%
  relative % of THP-1 cell migration, agonist assay, 0.03 nM: 28.7%
  relative % of THP-1 cell migration, agonist assay, 0.1 nM: 59.4%
  relative % of THP-1 cell migration, agonist assay, 0.3 nM: 87.3%
  relative % of THP-1 cell migration, agonist assay, 3 nM: 78.4%
  relative % of THP-1 cell migration, agonist assay, 10 nM: 48.4%
[3]
  EC50, agonist THP-1 cell migration: 0.1 nM
  relative % of THP-1 cell migration toward rhMCP-1 0.01 nM, medium only: 6.44%
  relative % of THP-1 cell migration toward rhMCP-1 0.03 nM, medium only: 15%
  relative % of THP-1 cell migration toward rhMCP-1 0.1 nM, medium only: 32%
  relative % of THP-1 cell migration toward rhMCP-1 0.3 nM, medium only: 67.5%
  relative % of THP-1 cell migration toward rhMCP-1 1 nM, medium only: 100%
  relative % of THP-1 cell migration toward rhMCP-1 3 nM, medium only: 97%
  relative % of THP-1 cell migration toward rhMCP-1 10 nM, medium only: 75.5%
  relative % of THP-1 cell migration, agonist assay, 0.03 nM: 26.5%
  relative % of THP-1 cell migration, agonist assay, 0.1 nM: 46.4%
  relative % of THP-1 cell migration, agonist assay, 0.3 nM: 80.2%
  relative % of THP-1 cell migration, agonist assay, 1 nM: 100%
  relative % of THP-1 cell migration, agonist assay, 3 nM: 70.3%
  relative % of THP-1 cell migration, agonist assay, 10 nM: 32.8%
  relative % of THP-1 cell migration, agonist assay, 30 nM: 26.4%
[4]
  relative % of THP-1 cell migration toward rhMCP-1 0.01 nM, medium only: 16.2%
  relative % of THP-1 cell migration toward rhMCP-1 0.03 nM, medium only: 24.2%
  relative % of THP-1 cell migration toward rhMCP-1 0.1 nM, medium only: 34.8%
  relative % of THP-1 cell migration toward rhMCP-1 0.3 nM, medium only: 60.7%
  relative % of THP-1 cell migration toward rhMCP-1 3 nM, medium only: 82.1%
  relative % of THP-1 cell migration toward rhMCP-1 10 nM, medium only: 59.8%

## LPD1421 (MCP1-Ig fusion: mature human MCP1, linker GGEPKSS of SEQ ID NO: 12, human IgG1 variant hinge-CH3 with D265A) (Fc fusion)
[2]
  relative % of THP-1 cell migration, agonist assay, 0.01 nM: 27.9%
  relative % of THP-1 cell migration, agonist assay, 0.03 nM: 63.8%
  relative % of THP-1 cell migration, agonist assay, 0.1 nM: 104%
  relative % of THP-1 cell migration, agonist assay, 0.3 nM: 86.2%
  relative % of THP-1 cell migration, agonist assay, 1 nM: 59.5%
  relative % of THP-1 cell migration, agonist assay, 3 nM: 33.1%
  relative % of THP-1 cell migration, agonist assay, 10 nM: 26.4%
[3]
  EC50, agonist THP-1 cell migration: 0.03 nM
  IC50, antagonist assay of THP-1 cell migration toward rhMCP-1: 0.01 to 0.1 nM
  potency in agonist cell migration relative to rhMCP-1: 3 fold
[4]
  relative % of THP-1 cell migration, antagonist assay, rhMCP-1 0 nM, LPD1421 0.01 nM: 11.8%
  relative % of THP-1 cell migration, antagonist assay, rhMCP-1 0 nM, LPD1421 0.1 nM: 9.55%
  relative % of THP-1 cell migration, antagonist assay, rhMCP-1 0 nM, LPD1421 1 nM: 12.6%
  relative % of THP-1 cell migration, antagonist assay, rhMCP-1 0.01 nM, LPD1421 0.01 nM: 10.6%
  relative % of THP-1 cell migration, antagonist assay, rhMCP-1 0.01 nM, LPD1421 0.1 nM: 9.42%
  relative % of THP-1 cell migration, antagonist assay, rhMCP-1 0.01 nM, LPD1421 1 nM: 8.35%
  relative % of THP-1 cell migration, antagonist assay, rhMCP-1 0.03 nM, LPD1421 0.01 nM: 12.7%
  relative % of THP-1 cell migration, antagonist assay, rhMCP-1 0.03 nM, LPD1421 0.1 nM: 10.3%
  relative % of THP-1 cell migration, antagonist assay, rhMCP-1 0.03 nM, LPD1421 1 nM: 10.7%
  relative % of THP-1 cell migration, antagonist assay, rhMCP-1 0.1 nM, LPD1421 0.01 nM: 24.3%
  relative % of THP-1 cell migration, antagonist assay, rhMCP-1 0.1 nM, LPD1421 0.1 nM: 12.1%
  relative % of THP-1 cell migration, antagonist assay, rhMCP-1 0.1 nM, LPD1421 1 nM: 7.25%
  relative % of THP-1 cell migration, antagonist assay, rhMCP-1 0.3 nM, LPD1421 0.01 nM: 41.7%
  relative % of THP-1 cell migration, antagonist assay, rhMCP-1 0.3 nM, LPD1421 0.1 nM: 15.9%
  relative % of THP-1 cell migration, antagonist assay, rhMCP-1 0.3 nM, LPD1421 1 nM: 13.5%
  relative % of THP-1 cell migration, antagonist assay, rhMCP-1 1 nM, LPD1421 0.01 nM: 61.2%
  relative % of THP-1 cell migration, antagonist assay, rhMCP-1 1 nM, LPD1421 0.1 nM: 33.7%
  relative % of THP-1 cell migration, antagonist assay, rhMCP-1 1 nM, LPD1421 1 nM: 9.44%
  relative % of THP-1 cell migration, antagonist assay, rhMCP-1 3 nM, LPD1421 0.01 nM: 44%
  relative % of THP-1 cell migration, antagonist assay, rhMCP-1 3 nM, LPD1421 0.1 nM: 39.2%
  relative % of THP-1 cell migration, antagonist assay, rhMCP-1 3 nM, LPD1421 1 nM: 9.57%
  relative % of THP-1 cell migration, antagonist assay, rhMCP-1 10 nM, LPD1421 0.01 nM: 39.2%
  relative % of THP-1 cell migration, antagonist assay, rhMCP-1 10 nM, LPD1421 0.1 nM: 37.9%
  relative % of THP-1 cell migration, antagonist assay, rhMCP-1 10 nM, LPD1421 1 nM: 16.1%

## NGSD (human MCP-1 joined at its carboxy-terminus directly to wild-type human IgG1 Fc) (from UniProt P13500 24-99; P01857 99-330) (Fc fusion)
[3]
  EC50, agonist THP-1 cell migration: 0.03 to 0.3 nM
  relative % of THP-1 cell migration, agonist assay, 0.03 nM: 17.7%
  relative % of THP-1 cell migration, agonist assay, 0.1 nM: 34.3%
  relative % of THP-1 cell migration, agonist assay, 0.3 nM: 35.5%
  relative % of THP-1 cell migration, agonist assay, 1 nM: 36.5%
  relative % of THP-1 cell migration, agonist assay, 3 nM: 26.7%
  relative % of THP-1 cell migration, agonist assay, 10 nM: 17.5%
  relative % of THP-1 cell migration, agonist assay, 30 nM: 20.1%

## GSD (human MCP-1, glycine-serine dipeptide, wild-type human IgG1 Fc) (from UniProt P13500 24-99; P01857 99-330) (Fc fusion)
[1]
  relative % of THP-1 cell migration, agonist assay, 0.03 nM: 22.8%
  relative % of THP-1 cell migration, agonist assay, 0.1 nM: 34.5%
  relative % of THP-1 cell migration, agonist assay, 0.3 nM: 41.9%
  relative % of THP-1 cell migration, agonist assay, 1 nM: 58.9%
  relative % of THP-1 cell migration, agonist assay, 3 nM: 53%
  relative % of THP-1 cell migration, agonist assay, 10 nM: 34.3%
  relative % of THP-1 cell migration, agonist assay, 30 nM: 23.1%
[3]
  EC50, agonist THP-1 cell migration: 0.03 to 0.3 nM

— patent US20110280873A1
